Results published in article PMC2814127.

Tests used:
[1] = target: actin (rabbit fast twitch skeletal muscle), reconstituted as actin filament in gelsolin-extracted bovine myocardium (rabbit) (UniProt P68135)
[2] = target: actin (rabbit fast twitch skeletal muscle), reconstituted as actin filament in gelsolin-extracted bovine myocardium (rabbit) (UniProt P68135); remark: listed apart in the source

“myosin of bovine myocardium (thick filament, cross-bridges) (from UniProt Q9BE39 1-1935) (complex)” showed a Stiffness at pCa 7 (25°C), fibres reconstituted with acetyl Tm (from bovine myocardium) and Tn [1] of 0.038 T ac, a Stiffness at pCa 7 (25°C), fibres reconstituted with nfTm and Tn [1] of 0.044 T ac and a Stiffness at pCa 7 (25°C), fibres reconstituted with ∆2Tm and Tn [1] of 0.039 T ac. The Stiffness at pCa 7 (25°C), fibres reconstituted with ∆3Tm and Tn [1] was 0.04 T ac, the Tension at pCa 7 (25°C), fibres reconstituted with acetyl Tm (from bovine myocardium) and Tn [1] was 0.168 T ac and the Tension at pCa 7 (25°C), fibres reconstituted with nfTm and Tn [1] was 0.065 T ac. The Tension at pCa 7 (25°C), fibres reconstituted with ∆2Tm and Tn [1] was 0.109 T ac, the Tension at pCa 7 (25°C), fibres reconstituted with ∆3Tm and Tn [1] was 0.196 T ac and the Rigor stiffness (100 Hz, 25°C), fibres reconstituted with nfTm and Tn [2] was 166 T ac. For the same substance, the Rigor stiffness (100 Hz, 25°C), fibres reconstituted with ∆2Tm and Tn [2] was 201 T ac, the Rigor stiffness (100 Hz, 25°C), fibres reconstituted with ∆3Tm and Tn [2] was 249 T ac and the Tension (T m), steady-state active tension in the standard activating solution at 25°C, fibres reconstituted with nfTm and Tn [2] was 1.51 T ac. It also gave a Tension (T m), steady-state active tension in the standard activating solution at 25°C, fibres reconstituted with ∆2Tm and Tn [2] of 1.65 T ac and a Tension (T m), steady-state active tension in the standard activating solution at 25°C, fibres reconstituted with ∆3Tm and Tn [2] of 0.91 T ac.
